Data taken from US20190321401A1 (JUNO THERAPEUTICS, published 2019).

Assays:
[1] = biological target: T1, HPV 16 E7(11-19), single-substitution variant Y1V (synthetic scanning library) peptide on HLA-A*02:01 (human); assay: activation reporter or marker
T1 peptide: VMLDLQPET

[2] = biological target: T2, HPV 16 E7(11-19), single-substitution variant Y1A (synthetic scanning library) peptide on HLA-A*02:01 (human); assay: activation reporter or marker
T2 peptide: AMLDLQPET

[3] = biological target: T3, HPV 16 E7(11-19), single-substitution variant E8S (synthetic scanning library) peptide on HLA-A*02:01 (human); assay: activation reporter or marker
T3 peptide: YMLDLQPST

[4] = biological target: T4, HPV 16 E7(11-19), single-substitution variant L3A (synthetic scanning library) peptide on HLA-A*02:01 (human); assay: activation reporter or marker
T4 peptide: YMADLQPET

[5] = biological target: T5, HPV 16 E7(11-19), single-substitution variant T9D (synthetic scanning library) peptide on HLA-A*02:01 (human); assay: activation reporter or marker
T5 peptide: YMLDLQPED

[6] = biological target: T6, HPV 16 E7(11-19), single-substitution variant Y1T (synthetic scanning library) peptide on HLA-A*02:01 (human); assay: activation reporter or marker
T6 peptide: TMLDLQPET

[7] = biological target: T7, HPV 16 E7(11-19), single-substitution variant E8W (synthetic scanning library) peptide on HLA-A*02:01 (human); assay: activation reporter or marker
T7 peptide: YMLDLQPWT

[8] = biological target: T8, HPV 16 E7(11-19), single-substitution variant Q6H (synthetic scanning library) peptide on HLA-A*02:01 (human); assay: activation reporter or marker
T8 peptide: YMLDLHPET

[9] = biological target: T9, HPV 16 E7(11-19), single-substitution variant T9V (synthetic scanning library) peptide on HLA-A*02:01 (human); assay: activation reporter or marker
T9 peptide: YMLDLQPEV

[10] = biological target: T10, HPV 16 E7(11-19), single-substitution variant E8A (synthetic scanning library) peptide on HLA-A*02:01 (human); assay: activation reporter or marker
T10 peptide: YMLDLQPAT

[11] = biological target: T11, HPV 16 E7(11-19), single-substitution variant M2Q (synthetic scanning library) peptide on HLA-A*02:01 (human); assay: activation reporter or marker
T11 peptide: YQLDLQPET

[12] = biological target: T12, HPV 16 E7(11-19), single-substitution variant L3C (synthetic scanning library) peptide on HLA-A*02:01 (human); assay: activation reporter or marker
T12 peptide: YMCDLQPET

[13] = biological target: T13, HPV 16 E7(11-19), single-substitution variant L5M (synthetic scanning library) peptide on HLA-A*02:01 (human); assay: activation reporter or marker
T13 peptide: YMLDMQPET

[14] = biological target: T14, HPV 16 E7(11-19), single-substitution variant E8D (synthetic scanning library) peptide on HLA-A*02:01 (human); assay: activation reporter or marker
T14 peptide: YMLDLQPDT

[15] = biological target: T15, HPV 16 E7(11-19), single-substitution variant Y1F (synthetic scanning library) peptide on HLA-A*02:01 (human); assay: activation reporter or marker
T15 peptide: FMLDLQPET

[16] = biological target: T16, HPV 16 E7(11-19), single-substitution variant T9I (synthetic scanning library) peptide on HLA-A*02:01 (human); assay: activation reporter or marker
T16 peptide: YMLDLQPEI

[17] = biological target: T17, HPV 16 E7(11-19), single-substitution variant Y1S (synthetic scanning library) peptide on HLA-A*02:01 (human); assay: activation reporter or marker
T17 peptide: SMLDLQPET

[18] = biological target: T18, HPV 16 E7(11-19), single-substitution variant L5F (synthetic scanning library) peptide on HLA-A*02:01 (human); assay: activation reporter or marker
T18 peptide: YMLDFQPET

[19] = biological target: T19, HPV 16 E7(11-19), single-substitution variant Y1N (synthetic scanning library) peptide on HLA-A*02:01 (human); assay: activation reporter or marker
T19 peptide: NMLDLQPET

[20] = biological target: T20, HPV 16 E7(11-19), single-substitution variant E8C (synthetic scanning library) peptide on HLA-A*02:01 (human); assay: activation reporter or marker
T20 peptide: YMLDLQPCT

[21] = biological target: T21, HPV 16 E7(11-19), single-substitution variant T9M (synthetic scanning library) peptide on HLA-A*02:01 (human); assay: activation reporter or marker
T21 peptide: YMLDLQPEM

[22] = biological target: T22, HPV 16 E7(11-19), single-substitution variant L3V (synthetic scanning library) peptide on HLA-A*02:01 (human); assay: activation reporter or marker
T22 peptide: YMVDLQPET

[23] = biological target: T23, HPV 16 E7(11-19), single-substitution variant D4C (synthetic scanning library) peptide on HLA-A*02:01 (human); assay: activation reporter or marker
T23 peptide: YMLCLQPET

[24] = biological target: T24, HPV 16 E7(11-19), single-substitution variant L5C (synthetic scanning library) peptide on HLA-A*02:01 (human); assay: activation reporter or marker
T24 peptide: YMLDCQPET

[25] = biological target: T25, HPV 16 E7(11-19), single-substitution variant E8T (synthetic scanning library) peptide on HLA-A*02:01 (human); assay: activation reporter or marker
T25 peptide: YMLDLQPTT

[26] = biological target: T26, HPV 16 E7(11-19), single-substitution variant Y1C (synthetic scanning library) peptide on HLA-A*02:01 (human); assay: activation reporter or marker
T26 peptide: CMLDLQPET

[27] = biological target: T27, HPV 16 E7(11-19), single-substitution variant Y1L (synthetic scanning library) peptide on HLA-A*02:01 (human); assay: activation reporter or marker
T27 peptide: LMLDLQPET

[28] = biological target: T28, HPV 16 E7(11-19), single-substitution variant P7C (synthetic scanning library) peptide on HLA-A*02:01 (human); assay: activation reporter or marker
T28 peptide: YMLDLQCET

[29] = biological target: T29, HPV 16 E6 peptide on HLA-A*02:01 (human); assay: multimer staining
T29 peptide: TIHDIILECV

[30] = biological target: T30, HPV 16 E7 peptide on HLA-A*02:01 (human); assay: multimer staining
T30 peptide: YMLDLQPET

B1: TCR 57 (TCR, V domains shown)
Valpha: TQLLEQSPQFLSIQEGENLTVYCNSSSVFSSLQWYRQEPGEGPVLLVTVVTGGEVKKLKRLTFQFGDARKDSSLHITAAQPGDTGLYLCAGARNFNKFYFGSGTKLNVKP
Vbeta: GAVVSQHPSWVICKSGTSVKIECRSLDFQATTMFWYRQFPKQSLMLMATSNEGSKATYEQGVEKDKFLINHASLTLSTLTVTSAHPEDSSFYICSARSWRGGLEQFFGPGTRLTVL
- binding result [1]: recognises
- binding result [2]: recognises
- binding result [3]: recognises
- binding result [4]: recognises
- binding result [5]: recognises
- binding result [6]: recognises
- binding result [7]: recognises
- binding result [8]: recognises
- binding result [9]: recognises
- binding result [10]: recognises
- binding result [11]: recognises
- binding result [12]: recognises
- binding result [13]: recognises
- binding result [14]: recognises
- binding result [15]: recognises
- binding result [16]: recognises
- binding result [17]: recognises
- binding result [18]: recognises
- binding result [19]: recognises
- binding result [20]: recognises
- binding result [21]: recognises
- binding result [22]: recognises
- binding result [23]: recognises
- binding result [24]: recognises
- binding result [25]: recognises
- binding result [26]: recognises
- binding result [27]: recognises
- binding result [28]: recognises
- binding result [29]: no recognition
- binding result [30]: recognises
